In patent US20200216495A1 (ADRX, published 2020):
Values joined by “and” are separate entries in the source; they are usually repeats but may differ in a detail not shown here. Identical values can stand only once. Square brackets hold non-standard residues; d marks the D form. Ends that are not written are not given here.

B1: wrarihw (peptide)
peptide: [dW][dR][dA][dR][dI][dH][dW]
B2: lkirihye (peptide)
peptide: [dL][dK][dI][dR][dI][dH][dY][dE]
B3: wwlklrw (peptide)
peptide: [dW][dW][dL][dK][dL][dR][dW]
B4: fkielhwh (peptide)
peptide: [dF][dK][dI][dE][dL][dH][dW][dH]
B5: rlrlkw (peptide)
peptide: [dR][dL][dR][dL][dK][dW]
B6: fkleiryh (peptide)
peptide: [dF][dK][dL][dE][dI][dR][dY][dH]
B7: wrlnvnw (peptide)
peptide: [dW][dR][dL][dN][dV][dN][dW]
B8: frirlrw (peptide)
peptide: [dF][dR][dI][dR][dL][dR][dW]
B9: frlwihw (peptide)
peptide: [dF][dR][dL][dW][dI][dH][dW]
B10: wkvqvryw (peptide)
peptide: [dW][dK][dV][dQ][dV][dR][dY][dW]
B11: wrlkvrww (peptide)
peptide: [dW][dR][dL][dK][dV][dR][dW][dW]
B12: akirihyh (peptide)
peptide: [dA][dK][dI][dR][dI][dH][dY][dH]
B13: fhlkirhh (peptide)
peptide: [dF][dH][dL][dK][dI][dR][dH][dH]
B14: feirlwhh (peptide)
peptide: [dF][dE][dI][dR][dL][dW][dH][dH]
B15: kwrwyrr (peptide)
peptide: [dK][dW][dR][dW][dY][dR][dR]
B16: lkifiwyh (peptide)
peptide: [dL][dK][dI][dF][dI][dW][dY][dH]
B17: ldlrfkly (peptide)
peptide: [dL][dD][dL][dR][dF][dK][dL][dY]
B18: lkieihy (peptide)
peptide: [dL][dK][dI][dE][dI][dH][dY]
B19: wklklrw (peptide)
peptide: [dW][dK][dL][dK][dL][dR][dW]
B20: wrlrthw (peptide)
peptide: [dW][dR][dL][dR][dT][dH][dW]
B21: wnlnvrw (peptide)
peptide: [dW][dN][dL][dN][dV][dR][dW]
B22: erlkvrww (peptide)
peptide: [dE][dR][dL][dK][dV][dR][dW][dW]
B23: rlkvrw (peptide)
peptide: [dR][dL][dK][dV][dR][dW]
B24: wkvhiqhw (peptide)
peptide: [dW][dK][dV][dH][dI][dQ][dH][dW]

target: Tau40 P301L protein (human); test: cell-based or functional assay

IC50, Tau40 assay (ThT)	Binder
3.33 µM	B1
3.32 µM	B2
3.54 µM	B3
3.37 µM and 3.44 µM	B4
3.43 µM	B5
3.38 µM	B6
3.23 µM	B7
3.23 µM	B8
3.33 µM	B9
3.54 µM	B10
3.23 µM	B11
3.54 µM	B12
3.29 µM and 3.36 µM	B13
3.38 µM	B14
3.55 µM	B15
3.33 µM	B16
3.43 µM	B17
3.32 µM	B18
3.56 µM and 7.39 µM	B19
3.33 µM	B20
3.33 µM	B21
3.36 µM	B22
3.38 µM and 3.59 µM and 3.81 µM and 4.79 µM	B23
3.29 µM	B24
